Test results reported in PMC12416549 (2024).
Where a chain is given by its changes, count along the chain named. In names and notes the source's numbering stands.

T1: TNFR1 (Homo sapiens, UniProt P19438)
T1 chain: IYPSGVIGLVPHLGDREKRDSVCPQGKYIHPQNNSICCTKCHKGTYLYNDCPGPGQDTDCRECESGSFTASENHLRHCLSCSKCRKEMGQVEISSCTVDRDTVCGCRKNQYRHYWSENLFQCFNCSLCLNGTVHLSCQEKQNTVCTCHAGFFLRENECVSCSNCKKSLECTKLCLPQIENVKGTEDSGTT

B1: F39I (designed binder)
chain: SMEEEVEKAAKEYEKKKKEAIEKHLEKLKAKDKEAAERILKELEEAAKEYAKDEAKTMSEEEAKRRAKKYKEKVLLSELSEEEQKEIKEAEEKLVRTILKYVEEAAK
B2: K11M (designed binder)
chain: B1 chain with K11M, I39F
B3: E12T (designed binder)
chain: B1 chain with E12T, I39F
B4: A36W (designed binder)
chain: B1 chain with A36W, I39F
B5: A51G (designed binder)
chain: B1 chain with I39F, A51G
B6: E62L (designed binder)
chain: B1 chain with I39F, E62L
B7: H24T (designed binder)
chain: B1 chain with H24T, I39F
B8: E60A (designed binder)
chain: B1 chain with I39F, E60A
B9: V102H (designed binder)
chain: B1 chain with I39F, V102H
B10: A20F (designed binder)
chain: B1 chain with A20F, I39F
B11: K68I (designed binder)
chain: B1 chain with I39F, K68I
B12: E26A (designed binder)
chain: B1 chain with E26A, I39F
B13: M58A (designed binder)
chain: B1 chain with I39F, M58A
B14: A47P (designed binder)
chain: B1 chain with I39F, A47P
B15: A36I (designed binder)
chain: B1 chain with A36I, I39F
B16: D53M (designed binder)
chain: B1 chain with I39F, D53M
B17: E62Y (designed binder)
chain: B1 chain with I39F, E62Y
B18: L79R (designed binder)
chain: B1 chain with I39F, L79R
B19: A55N (designed binder)
chain: B1 chain with I39F, A55N
B20: K18I (designed binder)
chain: B1 chain with K18I, I39F
B21: K71A (designed binder)
chain: B1 chain with I39F, K71A
B22: E61D (designed binder)
chain: B1 chain with I39F, E61D
B23: A106C (designed binder)
chain: B1 chain with I39F, A106C
B24: K23W (designed binder)
chain: B1 chain with K23W, I39F
B25: E19A (designed binder)
chain: B1 chain with E19A, I39F
B26: K64V (designed binder)
chain: B1 chain with I39F, K64V
B27: K41Y (designed binder)
chain: B1 chain with I39F, K41Y
B28: A55H (designed binder)
chain: B1 chain with I39F, A55H
B29: D53E (designed binder)
chain: B1 chain with I39F, D53E
B30: E92V (designed binder)
chain: B1 chain with I39F, E92V
B31: I87H (designed binder)
chain: B1 chain with I39F, I87H
B32: E91N (designed binder)
chain: B1 chain with I39F, E91N
B33: L79T (designed binder)
chain: B1 chain with I39F, L79T
B34: K56I (designed binder)
chain: B1 chain with I39F, K56I
B35: L40W (designed binder)
chain: B1 chain with I39F, L40W
B36: E45K (designed binder)
chain: B1 chain with I39F, E45K
B37: E104F (designed binder)
chain: B1 chain with I39F, E104F
B38: S59P (designed binder)
chain: B1 chain with I39F, S59P
B39: K85C (designed binder)
chain: B1 chain with I39F, K85C
B40: K33W (designed binder)
chain: B1 chain with K33W, I39F
B41: A20Y (designed binder)
chain: B1 chain with A20Y, I39F
B42: L25Q (designed binder)
chain: B1 chain with L25Q, I39F
B43: A55R (designed binder)
chain: B1 chain with I39F, A55R

Biological target: T1, TNFR1
Assay: yeast display SC50

Row | Binder | apparent Kd (screen) [nM]
1 | B1 | 3.99
2 | B2 | 0.446
3 | B3 | 1.05
4 | B4 | 0.446
5 | B5 | 2.05
6 | B6 | 0.653
7 | B7 | 1.16
8 | B8 | 0.956
9 | B9 | 0.49
10 | B10 | 0.446
11 | B11 | 0.869
12 | B12 | 1.05
13 | B13 | 10.4
14 | B14 | 10.4
15 | B15 | 1.54
16 | B16 | 4.83
17 | B17 | 0.869
18 | B18 | 13.8
19 | B19 | 11.4
20 | B20 | 0.653
21 | B21 | 0.446
22 | B22 | 1.05

Row | Binder | apparent Kd (screen) [nM]
23 | B23 | 3
24 | B24 | 0.956
25 | B25 | 0.869
26 | B26 | 0.653
27 | B27 | 0.446
28 | B28 | 12.5
29 | B29 | 0.718
30 | B30 | 12.5
31 | B31 | 2.25
32 | B32 | 0.653
33 | B33 | 1.86
34 | B34 | 2.73
35 | B35 | 0.49
36 | B36 | 12.5
37 | B37 | 0.593
38 | B38 | 0.446
39 | B39 | 0.539
40 | B40 | 0.869
41 | B41 | 0.446
42 | B42 | 1.54
43 | B43 | 1.05
